Article PMC10003956, “To the Understanding of Catalysis by D-Amino Acid Transaminases: A Case Study of the Enzyme from Aminobacterium colombiense” (Molecules, 2023)

How the values were obtained:
[1] = substrate: N[C@H](CCC(=O)O)C(=O)O; assay: purified protein; format: biochemical, Aminobacterium colombiense; conditions: 500 mM pyruvate, 60 µM PLP, 50 mM K-phosphate, pH 8.0, 60 °C
[2] = substrate: O=C(O)CCC(=O)C(=O)O; assay: purified protein; format: biochemical, Aminobacterium colombiense; conditions: 500 mM D-alanine, 60 µM PLP, 50 mM CHES, pH 9.0, 60 °C

B1: AmicoTA (Aminobacterium colombiense DSM 12261) (protein)
chain: MNLCYIDGKFLPLEEAKLPVTDLIIQRGVGVFETISTHSRRPLMLTPHLKRLEGSATASSIVMPATLDEMARIIREGIKKMGCETMVRPYITGGDSFGKDHLFSSSRYFVIFEEIRKPDPILYEKGVALHPINAERYLPSTKSINYMLSFTGQRDSKGAYEILYCPEGEIVEGSHSTFFLIKNGHLITAPTSRALSGTTRQIVLELARRGNIQVEERCPLLTELPEAEEAFITGTVKELLPVVRIGDQIIGNGVPGKLTKHLHQVYLSSIVEWLE
notes: N-terminal His6-TEV tag kept for kinetics, cut for crystals; E. coli Rosetta (DE3) pLysS
With B1 the Km [1] was 5.2 ± 0.6 mM, the kcat [1] was 1.4 ± 0.06 s⁻¹ and the kcat/Km [1] was 270 ± 40 M⁻¹ s⁻¹. For the same protein, the Km [2] was 7.2 ± 0.8 mM, the kcat [2] was 9.9 ± 1.3 s⁻¹ and the kcat/Km [2] was 1380 ± 330 M⁻¹ s⁻¹.
